Laboratory results published in the DeepSol protein solubility set.

Assay: soluble on expression in E. coli; label from the status in PepcDB or PDB records

| Sequence | soluble on expression in E. coli |
| --- | --- |
| MTTTIEVGMLGLGTVGSGVVERLTRSAAKIEQTQGIRLHLAAVAVNHLNAPRTVQLPIGTRLTDSLTNVVCDRKIQLVIEVMGTVATAKKAIVAALNQGKAVVTANKDLIATAGPELAALAKKQGCDLFYEASVAGGIPILRTLTDSYVTDNVQAVSGIINGTANYMLSAMATGQSYEQALATAQATGYAEADPTNDVAGIDAAYKLMILSRFAFGQELSLPQIAPTGITHLSASVCRLAAENGWQIKLLAQIQRHGSGLYCRVAPVAVPVDQPLSQINGVQNAVAVQSEAIGTSLYTGPGAGSTATANSVLNDVLVAAKHLINGYRMIRNQKRSVSLTVTRFDQLPQTYLGIGPVAPEAVKYYANEADFSVKTIADDCYQITGLSAVKRKKLRANLPLTLIPIAGTTDWKQVTENSITSPINVAILEHHHHHH | soluble |
| MSLKTGRSNIIAFIVPDQNPFFTEVLTEISHECQKHHLHVAVASSEENEDKQQDLIETFVSQNVSAIILVPVKSKFQMKREWLKIPIMTLDRELESTSLPSITVDNEEAAYIATKRVLESTCKEVGLLLANPNISTTIGRKNGYNKAISEFDLNVNPSLIHYSDQQLGTNAQIYSGYEATKTLLSKGIKGIVATNHLLLLGALQAIKESEKEIKKDVIIVGFDDSYWNEIYTPKLTVISQPVKEMGQVAAKMIYKLIKGKDVTSIKLSTKLIIRESCSFNEGHHHHHH | soluble |
| MVKSFRMKALIAGAAVAAAVSAGAVSDVPAAKVLQPTAAYAAETVFSQNNGASGFLPGRYDVQAMAPAMFNWSRESRFAGNTDGTLKWQNDIRTTPQNGAGAVIDGDGTVYLHSRDGEMKAFNPDGSVKWVTGNLGKTYTQSPVLGTNGVIYLASYDKKIYFIDKETGEILTTVPLSGGPSSETVIGSDGTLYFSTLDNYVHAIKPTSKSTWTERWKLKTNGVVSSVPVLAKNGTVYVGTYNYVFYAINSGTGQVKWSRTTSNAFKGYPVIDKDGNIYAGNQDGQLYAYTSTGSLKWTFPLNGFSSSSPAIDHNGNIYIGSGSGELFSISKNGDMNWSFYTDGPVRTAPLIDAKGTVYFGSDDMKVYAADANGNELWSYQTDSNVVSSPQLAEDGTLYIGSYTKLMAFGKLEHHHHHH | soluble |
| LAWKRMEEHDWTCDCIRCREAGHSDDVAENIELDVMTYEACGGMEHFISFEDFENDVLVGFCRLRFPNDPVRRELQDAAIVRELHVYGNAVGVGQEGDDEDHQHKGYGKKLLEKAEVLARDAGFPKLAVISGIGVRQYYREKLGYKQDGPYVSKRL | not soluble |
| MFKRVLIANRGEIAVRAIRACRELGLKTVAIYSEADKNSLHVELADEAICIGPPDPSKSYLDIPRIMSALEVSKADAVYPGYGFLSENPKFAEIVEKSGAKFIGPRSEVLAKIGDKVLAKKVAKEVGLPLVPGSDEPLEFSEAVKLASKIGYPVVIKAAAGGGGRGIRIIRDEKELREKFPLAKKEAESAFGDGRLYIEKYVINPKHIEFQVIADEHGNVYVLGERECSIQRRHQKLIEEAPSVSVSEEKRKEISEKVAEFCKRLGYTSAGTVEFLMDEEGNFYFMEMNGRIQVEHPVTEMVTGVDIVKLQLIAAMGEEIKLEKVETNGFAIEFRINAEDPVTFIPSPGQVEKLILPGGPGVRVDTHLYQGYTVPPYYDSLLAKIIVWGNTRQEAIARGKRALGELKIEGKGLKVNTEFHLRVLDQKEFIEGKHDITFVERIMV | soluble |
| MGSDKIHHHHHHMTPPPDELLAVRQAVEWAITTRRSVRAFLPKPVTADTVEAILNTARFAATGVNIQPWKVHVLMGAAKDRVCAAIKQIDDDPAVAVMHADEWAYYPKEWTSPYVDRRRAVGWRLYSLLGIEKGDKARMQVQHGRNYQFFGAPVGLFFTVDRLMSEGSLLDYGMFLQNIMVVARTYGLSTCPQAAFMKYHRIIEQELGLGAHEKFVVGMSLGYADEERIENTLASEREPAASFTTFHEK | not soluble |
| MIQKGLEGVKICESSICYLDGINGRLYYRGIPVEELAEKSTFEETAYFLWYGKLPTKSELEEFKRKMADYRELPAEALGILYHLPKNLHYIDVLKIFLSIHGSMDGNDEDLREKAIRVASVFPTILAYYYRYSKGKELIRPRKDLSHVENFYYMMFGERNEKIRLLESAFILLMEQDINASTFAALVIASTLSDLYSCIVGALGALKGPLHGGASEKVPPMLEEIGSEDRVEEFVQKCLKEKRKIMGFGHRVYKTYDPRAVFLKRVLQEHFPDSKLFRIASKLEEYIVSNKIKNIYPNVDLYSSVLFEELGFPRNMFTALFATARVVGWTAHVIEYVSDNKLIRPTSEYVGPMDVEYIPIERRDENG | soluble |
| MAGATDQRRQEVLRAIVADYIASQEPVGSKALLERHNLKVSSATIRNDMAVLESEGYIVQQHASSGRIPTEKAYRTFVDSINDIKPLSVAERRAILGFLERGVDLEDVLKRSVQLLSQLTRQAAVIQLPNLNVSRVKHCEVVLLSPVRLLLVLITDNGRVEQRNVEVDQICEPEHVAKMRDVLNRALDNKTLSDASASLAELAAGEILVDPDIQPMILRCATVLIETLVEQPNDRLILAGASNLTHIAREMPSSLPAMLEALEEQVVVLKLLTNVRDLGHVSVLIGEENEDEQLRGTSVVTTGYGAQGATLGGLGVVGPTFMDYSGTMSKVYAVAHYVSRVLSGG | not soluble |
| MARETHDREDLLLEGVNLPERARLLHRASGREWVIGWRTGGGAAFYDGPDRVYQFNADNQLRRVYLDGSKLAAEGGRLCELRRPEPTNPDGSAGDRTQKVKLVWQPIDSAIQRNVLEQWAETRQQLLTALELFRERDLPNVTIASTAPDGSNSSLSTQPSIYSWESVGIDAFEMLDRTSGWLVSITDNPEIAAQPNA | soluble |
| MQGAQTSEDNLGSQSQPGPCGYIYFYPLATYPLREVATLGTGYAGHRCLTVPLLCGITVEPGFSINVKALHRRPDPNCGLLRATSYHRDIYVFHNAHMVPPIFEGPGLEALCGETREVFGYDAYSALPRESSKPGDFFPEGLDPSAYLGAVAITEAFKERLYSGNLVAIPSLKQEVAVGQSASVRVPLYDKEVFPEGVPQLRQFYNSDLSRCMHEALYTGLAQALRVRRVGKLVELLEKQSLQDQAKVAKVAPLKEFPASTISHPDSGALMIVDSAACELAVSYAPAMLEASHETPASLNYDSWPLFADCEGPEARVAALHRYNASLAPHVSTQIFATNSVLYVSGVSKSTGQGKESLFNSFYMTHGLGTLQEGTWDPCRRPCFSGWGGPDVTGTNGPGNYAVEHLVYAASFSPNLLARYAYYLQFCQGQKSSLTPVPETGSYVAGAAASPMCSLCEGRAPAVCLNTLFFRLRDRFPPVMSTQRRDPYVISGASGSYNETDFLGNFLNFIDKEDDGQRPDDEPRYTYWQLNQNLLERLSRLGIDAEGKLEKEPHGPRDFVKMFKDVDAAVDAEVVQFMNSMAKNNITYKDLVKSCYHVMQYSCNPFAQPACPIFTQLFYRSLLTILQDISLPICMCYENDNPGLGQSPPEWLKGHYQTLCTNFRSLAIDKGVLTAKEAKVVHGEPTCDLPDLDAALQGRVYGRRLPVRMSKVLMLCPRNIKIKNRVVFTGENAALQNSFIKSTTRRENYIINGPYMKFLNTYHKTLFPDTKLSSLYLWHNFSRRRSVPVPSGASAEEYSDLALFVDGGSRAHEESNVIDVVPGNLVTYAKQRLNNAILKACGQTQFYISLIQGLVPRTQSVPARDYPHVLGTRAVESAAAYAEATSSLTATTVVCAATDCLSQVCKARPVVTLPVTINKYTGVNGNNQIFQAGNLGYFMGRGVDRNLLQAPGAGLRKQAGGSSMRKKFVFATPTLGLTVKRRTQAATTYEIENIRAGLEAIISQKQEEDCVFDVVCNLVDAMGEACASLTRDDAEYLLGRFSVLADSVLETLATIASSGIEWTAEAARDFLEGVWGGPGAAQDNFISVAEPVSTASQASAGLLLGGGGQGSGGRRKRRLATVLPGLEV | soluble |
| MDSGMVTPELKKAFAERGIDIIPVDVGTKMLVNELHPSHHDSTQVVIGSPIIPAPGNIDPQLRSYRIRRRMTVEANPFLLDHVIAGTPVLPATCGMSWMINACEECYPGYRYFRCQDFKILKGITFNDKVASEHILEIQEVAKHGSESIEFKTKVLSKTPEGKIHYHFSAHITIVRELPAAPVYESLDMTEDHTIGAIGKDFYQKGGLSLFHGISFQQITRVLNINSQKITVECCWAEIPLETQGQFPVKWHNPYATDLSTQPLWLWLSHVHQEVCLPGQITKSEQFRAIPRNKPFYVSCEIEHKTPSGVTADIILHDREGKIYFRIYQAKAIIAPMNLHLEHHHHHH | not soluble |
| MWRTRVVHTTGYVYQSPVTASYNEARLTPRSSSRQNLVLNRVETIPATRSYRYIDYWGTAVTAFDLHAPHTELTVTSSSVVETERPEPLAAKATWADLQSTAVIDRFDEVLRPTPHTPASARVDAVGRRIRKCHEPSEAVVAAARWARSELDYIPGTTSVHSSGLDALEQGKGVCQDFVHLSLMVLRSMGIPCRYVSGYLHPKRDAVVGKTVDGRSHAWVQAWTGGWWHYDPTNDNEITEQYISVGVGRDYTDVSPLKGIYSGEGVTDLDVVVEITRLA | soluble |
| MKYDTSELCDIYQEDVNVVEPLFSNFGGRSSFGGQIITVKCFEDNGLLYDLLEQNGRGRVLLVDGGGSVRRALVDAELARLATQNEWEGLVIYGAVRQVDDLEELDIGIQAIAAIPVGAAGEGIGESDVRVNFGGVTFFSGDHLYADNTGIILSEDPLDIE | not soluble |
| MNKLLSYYQKELAFLRKQGIEFAKKYPKVARRLGYNQGGSEDPHVQRLTESFAFLSSKIHQRLDEDLPELMEALLRNLAPQFLYNYPSSCIVSFEPDRKSSGITSTYRVPSGTSLYSRYKYKTICQFRTVYPLTIVPATVNKARIHYDNSSSLWKIELNLDVFDGANFSLDFVRFYLNGPATVTGIIYTLLCDEVDNIVLQRNNDVLYDISANISGAGFYESEVTLPQKGNVSYIHNLILDYFSFPERFNFIDIEFDSGIELCSGDSVRIEITLKSSAEKYEPDRIERNVSERLFKVNCSPVVNLFEKKTEPLRLSDGQDEYQVNTDLYSRNEVLIWDINKVTLHRYENDIVKQFPLKNLFGLEHSVIKQSCNIFWHSSCYRSSSERGNFEESVYIRLSDDGGAQSCIMTGDVLSIDAICTNGNIPSSINNGDPDGDFDCDIDIAQLRITALNRPSRMLPAMALKGMNWRIVSQLSLNFVLLSGTDGAMKLREMLSIYNYNNNHSISIFIEWIKELQITPVSSRLPGIYPPVTARGIDITVTLSKDADMHPECFMFCSFLDHFLGLHAPVNSFTRMITVIEHEEHTRRVWPIRAGKLTWL | not soluble |
| MSLSLSHFRITRFQFARDRVIGDSQVRADDVNVAALELVSESGEVGLGFIQTLFNPLPDQQEIESVFEHEVWPSLKGNRAIALVHRVNRPRGGNQRAYSLPFHEAVQVALWDLAAKEAGLPLHVLLGSRRNRVKAYASGLDFHLDDDAFVSLFSHAASIGYSAFKIKVGHRDFDRDLRRLELLKTCVPAGSKVMIDPNEAWTSKEALTKLVAIREAGHDLLWVEDPILRHDHDGLRTLRHAVTWTQINSGEYLDLQGKRLLLEAHAADILNVHGQVTDVMRIGWLAAELGIPISIGNTFLEAGVHMAVALPEVEWLEYSFQNFDHLVEQPIEIRDGYAYAPDRPGHGLVLSEKARGEWSRPRRLARSELGAAPENPRLPAKEGHHHHHH | soluble |
| MDTSDHKPLIDRFETEFAEKSSLLRKEESELKRPDLRGDFLCLSCGQNFKHGASLNRHRKLVHSDEYTCMLCARKLYLKETVRDHMRNEHYLGQVYTCGCCNWTFSNKKALTEHAKAIQETGAPGDANPIAKSGNSPGSLLKSPIQRAGFKLNRLLNKSLSPSTSNSTTSSSSRDASGSPQPELELKLEPEPEPEPNEEALEYKRFFNNAVDTILQRNFFTDQQITEVDTWVIIIESANALATALQSYKKAQQIQPAEPAMIPEKRIKPEIE | soluble |
